From a protein production outcome set (Wang et al. 2014) come the findings set out here.

The nature of this data set: label from the status in PepcDB records.

Take “MMCAARNTMSSSGSSPSGSDLQAFVMEFIITGFLMLVVCAVTTTKRTTEELEGLIIGATVTLNVIFVGEVSGASMNPARSIGPALVWGCYKGIWIYLLAPTLGAVSRALIHKMLPSIPNAEPKFSKTGSSHKRVSDLPL”: the protein production result was “failed”. To “MMDGSTFYFVAWIGWIIVTFFMKKDPIRWKLGACILIFIICSPLHVTIASFVVSVNALLLCIISFIGITLYSVWKKLYSLLSALIIAMLYTSFHLLEIYDPIWIVVDRVFLLSSALVYASVLLHGDRILRLCSLYVGMLQAELLVTFIFSKLNFPYDYGSLAFFDIVAISTLFMAILFWIAKASVYMERFKRKTRKRKARVIHD” belongs “failed”; to “MMDVARAKFLPHEQVTFQVADATTLPFENEAFDAVVCQFGVMFFDKDTAFREAYRTLGRGGRYLFSVWDSRRYNPFASLAFEVLKQFFPLNPPRFLEAPVSSFEIDPIKEALIQSGFERIVISVQGREHDILDVRTFARGLVFSPVIEEIRERGGVEPEDIIAALAEALKREYGSRPTRYPMQAILFEAEKP”, “failed”. To “MMDVNSSGRPDLYGHLRSFLLPEVGRGLPDLSPDGGADPVAGSWAPHLLSEVTASPAPTWDAPPDNASGCGEQINYGRVEKVVIGSILTLITLLTIAGNCLVVISVCFVKKLRQPSNYLIVSLALADLSVAVAVMPFVSVTDLIGGKWIFGHFFCNVFIAMDVMCCTASIMTLCVISIDRYLGITRPLTYPVRQNGKCMAKMILSVWLLSASITLPPLFGWAQNVNDDKVCLISQDFGYTIYSTAVAFYIPMSVMLFMYYQIYKAARKSAAKHKFPGFPRVEPDSVIALNGIVKLQKEVEECANLSRLLKHERKNISIFKREQKAATTLGIIVGAFTVCWLPFFLLSTARPFICGTSCSCIPLWVERTFLWLGYANSLINPFIYAFFNRDLRTTYRSLLQCQYRNINRKLSAAGMHEALKLAERPERPEFVLITRTSGVHQALENFPWGNEVNRWRKSCEYFCTDKMLTTVEKKVMIHD” belongs “failed”; to “MMEEVARVVACDNQGWLTVEVELKSTCKSCNSSESCGTSAVAQAFSSKTQQFSIQSERTCEVGELLKLGLPESVILKAAALVYLMPLLGLFLGALSGQFFAGLFQINADLSAIGFAALGAITAWLIGKRKAKQLEVDSQPVILAYLGAGISLEKLPV”, “failed”; to “MMEHHKVHTTIQALQAKRKKLLTELAELEAEIKVSSERKSSFNISLSPSLLAEIEEIEYEEKTSKERRINHSVLLSPSFMAKVDEYMKEKGFSNRSLLFEKALEFYMLKHP”, “failed”.

Turning to “MMEQALQTITLSCEWSEERQCFWLSSSSPATSWAPLVFAWHEETFYGTLIDSVIVNGREVVQLSPWQALTFFASRPSISFVAIEWKDEFTAQLETWARQIWDDLRERRFRPDFAAWKERRSTLWSEAQHTRWLGLDADPHPFITTWRSLAIADWLSRDPELRDIWQEIIKDYPAILARNDQWISGEDDWLEQIGWLGERPLFTVGLRLVEPPEDGDSWTLETVLIALDDSVVVPVDEIPRAWRPYEQSIARAIRRIETIIPWLGGNGELRNELSDDEAWLFLSEESLKLTEAGVRLLLPDWWHNIRQAQLSIKAKLSPSVHAESLFGLERLSDFDWRVATNGIELTEEEFAAIAEQKRRLIRLRGQWIALDPALVRRAQTLMEKAKQEGVPIHEIVAQTLLAEANARDEATDEHIPIHIDVQNQFRAFIRQLHNIDELPTAVVPPSFHGTLRPYQQRGVDWLAFLRRFGFGACLADDMGLGKTVQLLAYLAYVKETEHPDTPALLICPTSVIGNWQKECARFTPELRVYTHHGPNRAKHEAFLQTAGRADLVITSYSLAHLDGDDLKQLHWHTVCLDEAQNIKNAQTKQARAIRRLRAKHKIALSGTPVENRLNELWSIFHFLNPGYLGSATEFERRFAGPIEKEGDAHKKAALQALIRPFLLRRTKTDEAVALNLPDKLEQKEYCPLTAEQAALYEQLVNDTLERAKAASPFARRGLILQMLNGIKQICNHPALYLKERSPRQLVERSHKLEKLVELVEQIRANDESCLIFTQYVRMGEMIQELLSDLFDEPVLFLNGSVPKPTRDRMVDEFQARKAPIFLLSLKAGGTGLNLTAANHVIHFDRWWNPAVENQATDRAYRIGQTKFVHVHKLITTGTIEEKIDEMLEQKQALADVITEGETWITELSDDELRDLLTLSAAAKGGA”, the protein production entry was “failed”. To “MMGNDSYSSNRGSSRDVLSFLQNFLGGFYAKYGIEVKLVGGLSLSKFYYAFDAERNQFLARHFLPVLSYIKKDFNARAALGIVNVDIYEPGFNFIFGLAHPGLKVAVVSLYRLYPEFYGNPPDRKLLKERALKEVMHELGHVFGLGHCPNPKCVMHFSNSIIDTDIKSWMYCESCLRKLEKNLARSHVLEHHHHHH” belongs “failed”; to “MMIMERHYTLKEASKILGVSIKTLQRWDKAGKIKCIRTLGGKRRVPESEIKRILGIKDKEQRKIIGYARVSFNAQKDDLERQIQLIKSYAEENGWDIQILKDIGSGLNEKRKNYKKLLKMVMNRKVEKVIIAYPDRLTRFGFETLKEFFKSYGTEIVIINKKHKTPQEELVEDLITIVSHFAGKLYGMHSHKYKKLTKTVKEIVREEDAKEKE”, “failed”; to “MMIMKRLLFLVSVCSLCMVGNSQNYQPEKHAVVKSDRGDGRLLSTYAIVHEMLKDTHPQYAYRSGMSAQEFTQWQDGVRAAMVEIMKFPEIKRQPSPVCVKTEKKEGYILEKWEFYPFPKSVSTFLVLKPEHLKGAVPGVLCIPGSGRTKEGLVGEPGICDKLTEDYNNPKVSMALNMVKEGYVAVAVDNAAAGEASDLECYDKGWNYDYDVVSRFLLELGWSWLGYTSYLDMQVLNWMKAQSYIRKDRIVISGFSLGTEPMMVLGVLDKDIYAFVYNDFLCQTQERAVVMTKPDKENRRPFPNSIRHLIPGYWRYFNFPDVVASLAPRPIIFTEGGLDRDFRLVQSAYAASGKPENAEFHHYPKFADKAVRKDVEHLDEGLDSKTYFEAVNVDPPSHYFKNELVIPWLRKVLK”, “failed”. The same measure for “MMIQGHLFHQDRKRTFRIVEPFGSTTDALIYFHGSQQSGSVGRSFTNRTFDPLPFMVVYPDGVDQHWNDARLGLDENTRHLGIDDVGFFVKLATHLGNTYGIKRIFIVGYSNGGQMVLRLMHEVPKMLSGAATIASNMPVAENTLPQVKTFKTHPVPYLAMAGTADTFSPYEGGDAGIGREHRRGVGMSAFDSAAYIAARNGLTEHRHDVIDDVVSIDTWDGENPVEFWTLNGIGHLVPSGKTYPEFLGPSTTSVIAAEEIGKFFDGVRRR”: “failed”; for “MMKAEELNKGFVNEIIEAGTPVPGEKEVASLKSCYQCGTCTGSCPSGRRTAYRTRKVIRQALLGIDSVLDSDDIWKCTTCYTCYERCPRDVKVTEIIKTIRNLAAKKGNMATPHKMTAVYVLKAGHAVPANDDTAKLRKSIGLAEKAPIAQFSQKDMDEIRTIAKNLKFDELIGFDWKTMGLKQ”: “failed”; for “MMKCTALIVTFNRLEKLKKSVRETVKAGFSSIVIVNNGSSDGTREWLSSLSEPGITILNLKDNLGGAGGFKVGSQYICSYSNADWVFFYDDDAYPEINILKHFSLLDTSRYRIFASRVQDTYGRSCRMNLPFIRVPSTVFETIYYAMRPERFSPVRTQVTDVQTVSFVGMIIDRKVLNNHLNDIHDELFLYYDDFFFGYKLVLSGQKIRYSPEIKFIHDISIHGKCICPEWKVYYLCRNLLLLRKLLPVPRIFSVLSIVLRLSKYLAILPWQRKKFRYLYFIWQGILHGLKGISGKYH”: “failed”. To “MMKDMTTGNPTKLIFLFAMPMLIGNLFQQFYTMIDAVIVGKFVSVDALAAVGATNSVNFFMISLIIGLMSGISVVVAQYFGFKDYDRLKDVIATATYAVVFSAIILTVAGVLLAKPLLILLRTPANILDDSTIFLTTLFIGILPMSLYNGMAAILRALGNSITPLIFLILSSLMNIALDFLFVVYMDMGVRGAAIATVLSQTAAAIAVIYYAYRHVPFMRIERAKFKLSTPLLKEMVRIGLPSGLQGSFISIGNMALQSLINGFGSSVVAAYTAASRIDSLTYQPGIAFGAASSMFAGQNIGAGKIDRVREGFWSGIKVVTAISIGITILVQLFARQFLLLFVDSSETEVINIGVSYLLIVSLFYVVVGILFVVRETLRGTGDAMVPLAMGIFELVSRLVIGFVLSLYIGYVGLWWATPVAWITATILGVWRYKSGAWQKKAVIRRK” belongs “not failed”. With “MMKKLTALFVASTLALGAANLAHAAETTTAPSDSKPMMMHHKGGPGQHDMMFKGLNLTDAQKQQIRDIMKSQRENMKRPSLEERRAMHDLIASDTFDKAKAEAQIDKMEAQHKAMALSRLETQNKIYNILTPEQKKQFNANFEKHLTERNAPAGKMPAPAE”, the protein production result was “failed”. For “MMKKMMVLYNETSGSSESKEIAERFKKAAEARGEAVILQPSNPDIDPEEMRKNAKENQVGVLVVIGGDGTIHHAVQNFKDTIRDYQIGIIPGGTVNNFARVLSIPLKEEDAFETILAGQTTPVDFGMVNQD”, the protein production result is given as “failed”. For “MMKLVCPSYIAKRKDSLAFKLFSYMTAIVISILLVQALAEQALVKAMLKVPNSVKMEMLDLAHQANVLIEHGDMDELADWANAQQFYLFVLNEQLQPVTHRLMHPHFEFKLQFKRSIDDQLEDKVNRPIISIPLVQQHNLVIQLPHRLHPANDFILYFSIIKVVIAAVILALFSLLMARNLQQPLDRLREASKKLSNGDFNVSVVQELKSNTREFNELAQDFDHMTKEIHSLAEKQRLLIRDVSHELRTPLARQNLVLHLLRKRVGESEQELVTRLEDEAKELNHLISDILEFSRLENARYDKETKRSDLEVLLAPQVERCKIDLRESQSIVFISRVTEPRAYCEDTLVVRCLNNLVGNAIKYAGEDARIEVTLTNQEINGQAYLVMSVSDDGPGIPENKLSDIFNPFTRLDASRDKKLGGYGLGLAIVKESMRMMGGSVNAENRSQGGLTVSLVFRQ”, the protein production entry was “failed”. To “MMMLPEACIANILAFTSPADAFSSSEVSSVFRLAGDSDFVWEKFLPSDYKSLISQSTDHHWNISSKKEIYRCLCDSLLIDNARKLFKINKFSGKISYVLSARDISITHSDHASYWSWSNVSDSRFSESAELIITDRLEIEGKIQTRVLSANTRYGAYLIVKVTKGAYGLDLVPAETSIKSKNGQISKSATYLCCLDEKKQQMKRLFYGNREERMAMTVEAVGGDGKRREPKCRDDGWMEIELGEFETREGEDDEVNMTLTEVKGYQLKGGILIDGIEVRPKT” belongs “failed”; to “MMMLPEACVANILAFTSPADAFSSSEVSSVFRLAGDSDFVWEKFLPSHYKSLISQSTDHHRIFSSKKEIYRCLCDSLLIDNARKLFKINKFSGKISYILSARDISITYSDHASYCSWSNVSDSRFSESAELITTDRLEIKGKIQTTVLSPNTKYGAYLIMKVTNGAYGLDLVPAETSVKSKNGQNNKNTTYLCCLDEKKQQMKRLFYGNREERMAMTVEAVGGDGKRREPKARDDGWLEIELGEFVTREGEDDEVNMSLTEVKGYQLKGGIVIDGIEVRPIPLK”, “failed”.

As to “MMNDYLNFLDGRVSVRRFDPDAVLPNDLIKDMLEHASYAPSGNNFQPWRVVVVKNKNKQEDLKKLAALQPQVATASAVFLLFGDENAYDLTWWQEFHVQKGIITKDEAAARAERIRQYFDLHPEDKETQGLRLDVGLFAMNLMQVVRVYGYDSVPMRGVDFDAIKTYLDMPNGWEPILMLPVGKALQAGNPHVRKSVAEFAEIIE”, the protein production result is given as “not failed”. To “MMNNMDSIINYIYEGDYFIVTSHISPDGDNIGSTLSMYYTLKNLGKNVYYVLDDEAPLNLRFLVEGVKIYKSNEFNMKNYSLIALDCGDKMRICVSDEIKNNASKLICIDHHASNDSYGDLNYVDIDASSTCELVYNLLVRFQQIKDINIINEDIATCLYTGLVTDTGNFSYSNVHASSFEMAKNLLVLGAQKNTIIQNIYQSN” belongs “failed”.
